{"source": "paper PMC9482650", "about": "“Quantitative fragmentomics allow affinity mapping of interactomes” (Nature Communications, 2022)", "assay_in_all_cases": "holdup assay", "set-up_in_all_cases": "key: below the threshold = too weak to quantify, mostly under pKd 3.1 to 4", "key": {"SCRIB_2, Q14160": {"target": "SCRIB_2, Q14160", "sequence (Q14160 857-960)": "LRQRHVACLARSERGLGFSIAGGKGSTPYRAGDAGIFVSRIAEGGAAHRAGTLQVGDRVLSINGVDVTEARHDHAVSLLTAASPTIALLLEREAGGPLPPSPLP"}, "LNX1_3, Q8TBB1": {"target": "LNX1_3, Q8TBB1", "sequence (Q8TBB1 500-596)": "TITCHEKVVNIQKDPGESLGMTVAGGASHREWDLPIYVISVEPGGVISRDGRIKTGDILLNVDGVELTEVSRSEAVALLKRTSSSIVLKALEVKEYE"}, "DVL3, Q92997": {"target": "T1, DVL3, Q92997", "T1 sequence (Q92997 244-331, limits assumed, looked up)": "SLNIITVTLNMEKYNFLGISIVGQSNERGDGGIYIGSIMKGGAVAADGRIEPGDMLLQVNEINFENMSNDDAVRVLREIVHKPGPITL"}, "LIN7C, Q9NUP9": {"target": "T2, LIN7C, Q9NUP9", "T2 sequence (Q9NUP9 88-185, limits assumed, looked up)": "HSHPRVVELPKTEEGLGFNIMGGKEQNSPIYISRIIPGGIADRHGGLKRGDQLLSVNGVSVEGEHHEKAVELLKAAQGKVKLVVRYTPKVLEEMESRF"}, "FRMPD2_2, Q68DX3": {"target": "FRMPD2_2, Q68DX3", "sequence (Q68DX3 944-1038)": "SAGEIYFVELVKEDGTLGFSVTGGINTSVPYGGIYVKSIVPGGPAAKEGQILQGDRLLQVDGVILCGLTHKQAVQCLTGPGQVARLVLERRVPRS"}, "CASK, O14936": {"target": "CASK, O14936", "sequence (O14936 487-570)": "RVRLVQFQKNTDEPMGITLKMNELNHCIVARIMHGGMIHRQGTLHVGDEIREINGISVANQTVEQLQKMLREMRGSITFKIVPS"}, "MAGI2_4, Q86UL8": {"target": "MAGI2_4, Q86UL8", "sequence (Q86UL8 772-865)": "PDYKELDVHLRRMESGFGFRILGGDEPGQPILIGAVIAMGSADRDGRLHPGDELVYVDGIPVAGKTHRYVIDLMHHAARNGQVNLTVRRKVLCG"}, "NOS1, P29475": {"target": "NOS1, P29475", "sequence (P29475 9-101)": "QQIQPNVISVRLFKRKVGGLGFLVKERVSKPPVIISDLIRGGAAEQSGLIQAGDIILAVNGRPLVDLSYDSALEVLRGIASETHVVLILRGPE"}, "APBA2_1, Q99767": {"target": "T3, APBA2_1, Q99767", "T3 sequence (Q99767 563-664, limits assumed, looked up)": "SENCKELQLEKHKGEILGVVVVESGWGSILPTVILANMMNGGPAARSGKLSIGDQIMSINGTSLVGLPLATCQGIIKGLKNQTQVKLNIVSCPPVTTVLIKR"}, "MPDZ_5, O75970": {"target": "T4, MPDZ_5, O75970", "T4 sequence (O75970 695-796, limits assumed, looked up)": "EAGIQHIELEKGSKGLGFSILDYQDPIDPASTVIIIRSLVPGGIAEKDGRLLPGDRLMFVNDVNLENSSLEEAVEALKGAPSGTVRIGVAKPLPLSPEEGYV"}, "SHANK1, Q9Y566": {"target": "T5, SHANK1, Q9Y566", "T5 sequence (Q9Y566 658-767, limits assumed, looked up)": "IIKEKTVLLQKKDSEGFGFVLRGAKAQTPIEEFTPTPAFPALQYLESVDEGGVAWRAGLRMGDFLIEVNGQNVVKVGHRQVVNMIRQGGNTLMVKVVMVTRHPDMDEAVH"}, "GOPC, Q9HD26": {"target": "GOPC, Q9HD26"}, "GRIP1_7, Q9Y3R0": {"target": "T6, GRIP1_7, Q9Y3R0", "T6 sequence (Q9Y3R0 999-1096, limits assumed, looked up)": "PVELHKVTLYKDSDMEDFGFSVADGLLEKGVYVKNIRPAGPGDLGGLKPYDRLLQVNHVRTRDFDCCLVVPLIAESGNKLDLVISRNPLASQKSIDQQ"}, "DLG3_3, Q92796": {"target": "T7, DLG3_3, Q92796", "T7 sequence (Q92796 374-475, limits assumed, looked up)": "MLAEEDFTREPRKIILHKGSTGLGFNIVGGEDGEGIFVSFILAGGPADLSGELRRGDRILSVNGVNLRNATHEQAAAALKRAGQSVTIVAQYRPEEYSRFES"}, "FRMPD2_1, Q68DX3": {"target": "FRMPD2_1, Q68DX3", "sequence (Q68DX3 770-861)": "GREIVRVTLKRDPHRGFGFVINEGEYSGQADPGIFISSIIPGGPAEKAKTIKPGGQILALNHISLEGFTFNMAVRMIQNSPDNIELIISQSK"}, "GORASP1, Q9BQQ3": {"target": "GORASP1, Q9BQQ3", "sequence (Q9BQQ3 1-208)": "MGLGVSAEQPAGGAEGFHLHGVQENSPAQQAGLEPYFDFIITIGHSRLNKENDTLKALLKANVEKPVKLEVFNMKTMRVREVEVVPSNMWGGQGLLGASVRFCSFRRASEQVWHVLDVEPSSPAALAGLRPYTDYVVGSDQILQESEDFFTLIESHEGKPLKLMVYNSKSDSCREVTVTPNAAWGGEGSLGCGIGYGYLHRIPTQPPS"}, "MAGI2_6, Q86UL8": {"target": "MAGI2_6, Q86UL8", "sequence (Q86UL8 1141-1229)": "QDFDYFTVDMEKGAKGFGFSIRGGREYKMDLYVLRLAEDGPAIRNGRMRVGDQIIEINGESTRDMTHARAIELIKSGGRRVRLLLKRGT"}, "Inadl_5, Q8NI35": {"target": "Inadl_5, Q8NI35", "sequence (Q8NI35 673-780)": "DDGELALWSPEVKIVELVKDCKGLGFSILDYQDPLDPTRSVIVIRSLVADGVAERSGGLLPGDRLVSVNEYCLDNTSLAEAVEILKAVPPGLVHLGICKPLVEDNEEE"}, "LAP2, Q96RT1": {"target": "LAP2, Q96RT1", "sequence (Q96RT1 other isoform, or with tags, fused parts or gaps)": "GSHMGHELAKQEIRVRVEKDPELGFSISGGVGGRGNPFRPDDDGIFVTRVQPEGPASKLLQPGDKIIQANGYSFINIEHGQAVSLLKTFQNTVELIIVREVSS"}, "DLG1_3, Q12959": {"target": "DLG1_3, Q12959", "sequence (Q12959 457-571)": "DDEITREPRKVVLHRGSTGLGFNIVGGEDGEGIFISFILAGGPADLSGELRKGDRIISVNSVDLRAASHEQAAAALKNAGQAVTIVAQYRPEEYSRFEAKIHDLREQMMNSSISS"}, "Inadl_1, Q8NI35": {"target": "Inadl_1, Q8NI35", "sequence (Q8NI35 113-229)": "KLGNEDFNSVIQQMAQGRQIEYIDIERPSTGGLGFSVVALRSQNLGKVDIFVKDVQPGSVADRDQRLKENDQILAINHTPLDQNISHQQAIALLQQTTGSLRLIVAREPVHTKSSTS"}, "PDZD7_3, Q9H5P4": {"target": "T8, PDZD7_3, Q9H5P4", "T8 sequence (Q9H5P4 857-944, limits assumed, looked up)": "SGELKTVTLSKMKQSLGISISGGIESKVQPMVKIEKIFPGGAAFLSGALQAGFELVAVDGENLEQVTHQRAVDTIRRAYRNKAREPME"}, "APBA1_2, Q02410": {"target": "T9, APBA1_2, Q02410", "T9 sequence (Q02410 742-832, limits assumed, looked up)": "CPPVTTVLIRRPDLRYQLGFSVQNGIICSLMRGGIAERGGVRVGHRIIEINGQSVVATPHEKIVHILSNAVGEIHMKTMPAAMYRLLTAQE"}, "DLG4_3, P78352": {"target": "DLG4_3, P78352", "sequence (P78352 306-403)": "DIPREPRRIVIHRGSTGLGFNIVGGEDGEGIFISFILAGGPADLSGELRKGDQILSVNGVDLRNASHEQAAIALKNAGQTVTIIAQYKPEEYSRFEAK"}, "FRMPD2_3, Q68DX3": {"target": "FRMPD2_3, Q68DX3", "sequence (Q68DX3 1073-1166)": "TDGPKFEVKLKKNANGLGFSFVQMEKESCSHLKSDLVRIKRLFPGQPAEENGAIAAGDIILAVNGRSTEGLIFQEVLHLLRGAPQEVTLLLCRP"}, "SNTB1, Q13884": {"target": "T10, SNTB1, Q13884", "T10 sequence (Q13884 107-205, limits assumed, looked up)": "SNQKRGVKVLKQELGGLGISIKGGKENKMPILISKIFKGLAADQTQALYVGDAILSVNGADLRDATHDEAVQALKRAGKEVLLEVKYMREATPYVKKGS"}, "FRMPD1, Q5SYB0": {"target": "T11, FRMPD1, Q5SYB0", "T11 sequence (Q5SYB0 52-145, limits assumed, looked up)": "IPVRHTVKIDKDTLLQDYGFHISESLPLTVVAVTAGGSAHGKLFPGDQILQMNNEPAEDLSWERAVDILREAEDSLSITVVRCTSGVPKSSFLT"}, "[1]": {"details": "plain residues with an end cap or a label only (N-terminal biotin on a linker: ttds)"}, "[2]": {"details": "plain residues with an end cap or a label only (N-terminal biotin on a linker: ado-ado)"}}, "data": [{"binder": "LDSQIQETSI", "note": "[MAP4, P27816]", "values": [{"measurement": "pKd", "setting": "SCRIB_2, Q14160; [1]", "value": 4.45}, {"measurement": "pKd", "setting": "LNX1_3, Q8TBB1; [1]", "value": "below the threshold"}, {"measurement": "pKd", "setting": "DVL3, Q92997; [1]", "value": "below the threshold"}, {"measurement": "pKd", "setting": "LIN7C, Q9NUP9; [1]", "value": 3.68}, {"measurement": "pKd", "setting": "FRMPD2_2, Q68DX3; [1]", "value": 3.8}, {"measurement": "pKd", "setting": "CASK, O14936; [1]", "value": "below the threshold"}, {"measurement": "pKd", "setting": "MAGI2_4, Q86UL8; [1]", "value": "below the threshold"}, {"measurement": "pKd", "setting": "NOS1, P29475; [1]", "value": 3.55}, {"measurement": "pKd", "setting": "APBA2_1, Q99767; [1]", "value": "below the threshold"}, {"measurement": "pKd", "setting": "MPDZ_5, O75970; [1]", "value": "below the threshold"}, {"measurement": "pKd", "setting": "SHANK1, Q9Y566; [1]", "value": 4.42}, {"measurement": "pKd", "setting": "GOPC, Q9HD26; [1]", "value": 4.14}, {"measurement": "pKd", "setting": "GRIP1_7, Q9Y3R0; [1]", "value": "below the threshold"}, {"measurement": "pKd", "setting": "DLG3_3, Q92796; [1]", "value": 3.78}, {"measurement": "pKd", "setting": "FRMPD2_1, Q68DX3; [1]", "value": "below the threshold"}, {"measurement": "pKd", "setting": "GORASP1, Q9BQQ3; [1]", "value": "below the threshold"}, {"measurement": "pKd", "setting": "MAGI2_6, Q86UL8; [1]", "value": 4.05}, {"measurement": "pKd", "setting": "Inadl_5, Q8NI35; [1]", "value": "below the threshold"}, {"measurement": "pKd", "setting": "LAP2, Q96RT1; [1]", "value": 3.86}, {"measurement": "pKd", "setting": "DLG1_3, Q12959; [1]", "value": 4.06}, {"measurement": "pKd", "setting": "Inadl_1, Q8NI35; [1]", "value": "below the threshold"}, {"measurement": "pKd", "setting": "PDZD7_3, Q9H5P4; [1]", "value": 5.63}, {"measurement": "pKd", "setting": "APBA1_2, Q02410; [1]", "value": "below the threshold"}, {"measurement": "pKd", "setting": "DLG4_3, P78352; [1]", "value": 3.61}, {"measurement": "pKd", "setting": "FRMPD2_3, Q68DX3; [1]", "value": "below the threshold"}, {"measurement": "pKd", "setting": "SNTB1, Q13884; [1]", "value": 4.93}, {"measurement": "pKd", "setting": "FRMPD1, Q5SYB0; [1]", "value": "below the threshold"}]}, {"binder": "GFGEERESIL", "note": "[KIDINS220, Q9ULH0]", "values": [{"measurement": "pKd", "setting": "SCRIB_2, Q14160; [2]", "value": "below the threshold"}, {"measurement": "pKd", "setting": "LNX1_3, Q8TBB1; [2]", "value": "below the threshold"}, {"measurement": "pKd", "setting": "DVL3, Q92997; [2]", "value": "below the threshold"}, {"measurement": "pKd", "setting": "LIN7C, Q9NUP9; [2]", "value": 3.63}, {"measurement": "pKd", "setting": "FRMPD2_2, Q68DX3; [2]", "value": "below the threshold"}, {"measurement": "pKd", "setting": "CASK, O14936; [2]", "value": "below the threshold"}, {"measurement": "pKd", "setting": "MAGI2_4, Q86UL8; [2]", "value": "below the threshold"}, {"measurement": "pKd", "setting": "NOS1, P29475; [2]", "value": "below the threshold"}, {"measurement": "pKd", "setting": "APBA2_1, Q99767; [2]", "value": "below the threshold"}, {"measurement": "pKd", "setting": "MPDZ_5, O75970; [2]", "value": "below the threshold"}, {"measurement": "pKd", "setting": "SHANK1, Q9Y566; [2]", "value": 3.87}, {"measurement": "pKd", "setting": "GOPC, Q9HD26; [2]", "value": 3.55}, {"measurement": "pKd", "setting": "GRIP1_7, Q9Y3R0; [2]", "value": "below the threshold"}, {"measurement": "pKd", "setting": "DLG3_3, Q92796; [2]", "value": "below the threshold"}, {"measurement": "pKd", "setting": "FRMPD2_1, Q68DX3; [2]", "value": "below the threshold"}, {"measurement": "pKd", "setting": "GORASP1, Q9BQQ3; [2]", "value": "below the threshold"}, {"measurement": "pKd", "setting": "MAGI2_6, Q86UL8; [2]", "value": 3.67}, {"measurement": "pKd", "setting": "Inadl_5, Q8NI35; [2]", "value": "below the threshold"}, {"measurement": "pKd", "setting": "LAP2, Q96RT1; [2]", "value": "below the threshold"}, {"measurement": "pKd", "setting": "DLG1_3, Q12959; [2]", "value": "below the threshold"}, {"measurement": "pKd", "setting": "Inadl_1, Q8NI35; [2]", "value": "below the threshold"}, {"measurement": "pKd", "setting": "PDZD7_3, Q9H5P4; [2]", "value": 5.03}, {"measurement": "pKd", "setting": "APBA1_2, Q02410; [2]", "value": "below the threshold"}, {"measurement": "pKd", "setting": "DLG4_3, P78352; [2]", "value": "below the threshold"}, {"measurement": "pKd", "setting": "FRMPD2_3, Q68DX3; [2]", "value": "below the threshold"}, {"measurement": "pKd", "setting": "SNTB1, Q13884; [2]", "value": 5.4}, {"measurement": "pKd", "setting": "FRMPD1, Q5SYB0; [2]", "value": "below the threshold"}]}]}
